This note sets out measurements from paper PMC3404119.

The target of series [1] is Her1 (zebrafish). Nature of the series: MITOMI (mechanically induced trapping of molecular interactions); GFP-tagged Her protein from wheat germ extract immobilised on the microfluidic chip surface with anti-GFP antibody and washed with PBS; mCherry-tagged protein expressed on chip in wheat germ extract with 250 nM Cy5-labelled DNA oligomer; 3 h at room temperature; slope of free against bound mCherry signal as relative affinity.

Series [2] relates to Her1-GFP (zebrafish). As to the kind of experiment: MITOMI. The conditions noted are these: PPARγ-mCherry present; MITOMI in wheat germ TnT SP6 expression extract, 3 h at room temperature; PBS wash of immobilized protein; DNA spotted with 1% BSA; salt and pH not stated.
The test system of series [3] is Her7 (coupled to chip, Fig 2D);Hes6-mCherry (zebrafish;zebrafish). As to the kind of experiment: MITOMI. The conditions noted are these: MITOMI in wheat germ TnT SP6 expression extract, 3 h at room temperature; PBS wash of immobilized protein; DNA spotted with 1% BSA; salt and pH not stated.

On to Her7 (natural protein), for which the fold lower relative affinity than the Her1 homodimer (Her1-mCherry on Her1-GFP) in series [1] came out at 3 fold.
On to “MyoD (myogenic differentiation 1) (from UniProt Q90477 1-275) (natural protein)”, for which the fold lower relative affinity than the Her1 homodimer (Her1-mCherry on Her1-GFP) in series [1] was 3 fold.
Consider seq 46 (control), for which the figures for the binding signal (relative to seq 2) in series [2] and in series [3] were 0.0105 and 0.0131, respectively.
The corresponding values for seq 47 (control) are 0.0105 and 0.0137.
